Assay [1] deals with SRM-HtrM fusion protein (H. marismortui SRM and HtrM joined by a flexible linker) expressed in H. salinarum (Haloarcula marismortui). As to the kind of experiment: SDS-PAGE and Western blot; lysate of transformed H. salinarum (cells lysed in distilled water, sonicated); detection with Penta-His HRP conjugate.
The target in assay [2] is HtrI, cognate transducer of SRI from Haloarcula marismortui, as part of the HmSRI-HtrI fusion protein (Haloarcula marismortui).
Assay [3] concerns the target HtrM, cognate transducer of SRM from Haloarcula marismortui, as the C-terminal part of the SRM-HtrM fusion protein (Haloarcula marismortui).

Broadly, the stoichiometry N is a count of units in the complex or per binding partner. Turning to “SRM-HtrM fusion protein (H. marismortui SRM and HtrM joined by a flexible linker) expressed in H. salinarum”, the stoichiometry N in assay [1] came to 2.

B1: Sensory rhodopsin I from Haloarcula marismortui, as part of the HmSRI-HtrI fusion protein (receptor)
chain: MDAVSVVYGITAAGFAVGVAIVGFLYASLEGSDERPILAALALIPGVAGISYVAMVFGIGTVTIGETTLVGFRYLDWVVTTPLLVGFIGYTAGASRRAIFGVMAADALMILAGVGAVVAAGTLKWALFGVSAVFHISLFAYLYLIFPRSVPDDPQRIGLFSLLKNHVGLLWIAYPLVWLAGPEGLGFATYVGVSITYAFLDLLAKVPYVYFFYARRQVFATKLLRDSGDTTVTPAD
Consider B1, for which, in assay [2], the Photocycle kinetics (Tau value) of detergent-solubilized HmSRI-HtrI fusion, acidic (pH 6.1-6.5) was 2.38 s and the Photocycle kinetics (Tau value) of detergent-solubilized HmSRI-HtrI fusion, alkaline (pH 7.6-7.9) turned out to be 4.49 s.

B2: Sensory rhodopsin SRM from Haloarcula marismortui, as the N-terminal part of the SRM-HtrM fusion protein (receptor)
chain: MAQEIVWYGAGAGAFFVSAVVFVWFAATRGNIRSSFYYLPPIHTSVAGAAYVAMALIAGGQLGDTVSITTLRFADWIVSTPIITYYLARLAGVDTQTRRLAVAANVVMIGVGYGFVSMSGSLRWIAFAVSTVAFIGLLYLYIKTFARKINAATASVRSLFQSLRDLTVVTWSLYPVVYFLGPLGTGIIQAPDLNFLVAVLDTIAKVGFMSILLVRYNSVETFVDSWSVAPAK
In assay [3], B2 returned a Photocycle kinetics (Tau value) of detergent-solubilized HmSRM-HtrM fusion, acidic (pH 6.1-6.5) of 4.05 s and a Photocycle kinetics (Tau value) of detergent-solubilized HmSRM-HtrM fusion, alkaline (pH 7.6-7.9) of 5.62 s.

These data come from paper PMC6450946.
